Assay results as given in article PMC8101287 (2020).
Several values for one entry are separate records, joined by “and”; a condition that tells them apart may be missing. Equal entries are not always repeated. Where two headings read alike, the source gives them in different places.

Columns and labels:
[1] = molecular target: T1, HLA‐DR1 (HLA‐DRA1*01:01/HLA‐DRB*01:01) complexed with the HA_(306‐318) peptide, refolded from E. coli (human | ); assay: SPR
[2] = molecular target: T1, HLA‐DR1 (HLA‐DRA1*01:01/HLA‐DRB*01:01) …; assay: SPR; remark: listed apart in the source

B1: LAG‐3:Fc fusion protein (four extracellular domains of LAG‐3 and the Fc domain of IgG) (Fc fusion)
chain: LQPGAEVPVVWAQEGAPAQLPCSPTIPLQDLSLLRRAGVTWQHQPDSGPPAAAPGHPLAPGPHPAAPSSWGPRPRRYTVLSVGPGGLRSGRLPLQPRVQLDERGRQRGDFSLWLRPARRADAGEYRAAVHLRDRALSCRLRLRLGQASMTASPPGSLRASDWVILNCSFSRPDRPASVHWFRNRGQGRVPVRESPHHHLAESFLFLPQVSPMDSGPWGCILTYRDGFNVSIMYNLTVLGLEPPTPLTVYAGAGSRVGLPCRLPAGVGTRSFLTAKWTPPGGGPDLLVTGDNGDFTLRLEDVSQAQAGTYTCHIHLQEQQLNATVTLAIITVTPKSFGSPGSLGKLLCEVTPVSGQERFVWSSLDTPSQRSFSGPWLEAQEAQLLSQPWQCQLYQGERLLGAAVYFTELSSPGAQRSGRAPGALPAGHL
- Kd [1]: 7300 nM
- Kd [2]: 3000 nM and 1000 nM
